The target of this experiment is T1, hen egg-white lysozyme (hen, UniProt P00698 19-147).
T1 construct: In solution in phosphate-buffered saline, captured in a sandwich between the first and second peptide molecules; also called HEL; target substance 173
In words: sandwich on TMR element: immobilized scFv, HEL, Fab on magnetic beads; magnetic read-out.

T1 sequence (P00698 19-147): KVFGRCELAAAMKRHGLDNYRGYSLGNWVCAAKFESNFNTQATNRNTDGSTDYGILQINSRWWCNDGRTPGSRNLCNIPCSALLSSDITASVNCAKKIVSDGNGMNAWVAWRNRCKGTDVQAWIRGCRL

B1: HyHEL10 scFv (single chain Fv of an anti-HEL antibody) (scFv)
scFv: DIVLTQSPATLSVTPGNSVSLSCRASQSIGNNLHWYQQKSHESPRLLIKYASQSISGIPSRFSGSGSGTDFTLSINSVETEDFGMYFCQQSNSWPYTFGGGTKLIITAGGGGSGGGGSGGGGSDIQLQESGPSLVKPSQTLSLTCSVTGDSITSDYWSWIRKFPGNRLEYMGYVSYSGSTYYNPSLKSRISITRDTSKNQYYLDLNSVTTEDTATYYCANWDGDYWGQGTLVTVSA
notes: Purified as a His-tag-fused polypeptide; In the assay it was immobilized on the silicon film or substrate via aminosilane and glutaraldehyde; also called scFv of the anti-HEL antibody; scFv of the HEL antibody
Take B1: the binding result is given as “binds”.
